Results: patent US20180118800

T1: ITDPLVPRHGDGS (SEQ ID NO: 8)
T1 sequence: ITDPLVPRHGDGS

T2: PLTPRHGDGSF (SEQ ID NO: 6)
T2 sequence: PLTPRHGDGSF

T3: PVSGPRHGDGSF (SEQ ID NO: 7)
T3 sequence: PVSGPRHGDGSF

T4: His6-Smt3-GLP-2 analog fusion protein
T4 chain: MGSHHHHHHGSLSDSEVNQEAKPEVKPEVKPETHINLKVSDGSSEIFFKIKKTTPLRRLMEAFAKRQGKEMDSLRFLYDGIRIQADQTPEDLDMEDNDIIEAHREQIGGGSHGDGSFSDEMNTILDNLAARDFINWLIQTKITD


Assays:
[1] = test system: His6-Smt3-LTPR-GLP-2 analog fusion protein
[2] = test system: T1, ITDPLVPRHGDGS (SEQ ID NO: 8)
[3] = test system: T2, PLTPRHGDGSF (SEQ ID NO: 6)
[4] = test system: T3, PVSGPRHGDGSF (SEQ ID NO: 7)
[5] = biological target: T4, His6-Smt3-GLP-2 analog fusion protein

Molecule | thrombin cleavage of fusion protein, RP-HPLC (C18) [1] | thrombin cleavage of fusion protein, SDS-PAGE [1] | thrombin cleavage of synthetic peptide, RP-HPLC (C18) [2] | thrombin cleavage of synthetic peptide, RP-HPLC (C18) [3] | thrombin cleavage of synthetic peptide, RP-HPLC (C18) [4] | U1p1 protease cleavage of fusion protein, SDS-PAGE [5]
thrombin | produced a complete cleaved product without partially cleaved segments after thrombin cleavage | thrombin had only one cleavage site on the His6-Smt3-Linker-GLP-2 analog fusion protein | Each of the three peptides was cleaved with thrombin | PLTPRHGDGSF was cleaved the most thoroughly | Each of the three peptides was cleaved with thrombin | –
U1p1 protease (protein) LVPELNEKDDDQVQKALASRENTQLMNRDNIEITVRDFKTLAPRRWLNDTIIEFFMKYIEKSTPNTVAFNSFFYTNLSERGYQGVRRWMKRKKTQIDKLDKIFTPINLNQSHWALGIIDLKKKTIGYVDSLSNGPNAMSFAILTDLQKYVMEESKHTIGEDFDLIHLDCPQQPNGYDCGIYVCMNTLYGSADAPLDFDYKDAIRMRRFIAHLILTDALK | – | – | – | – | – | U1p1 protease had only one cleavage cite on the His6-Smt3-GLP-2 analog fusion protein but cleaved far less efficiently than thrombin cleaving a His6-Smt3-Linker-GLP-2 analog fusion protein
